Kd data for two molecules are collected here from patent publication US20240391959A1 (Bicycle, published 2024).

Assay [1] addresses T1, Recombinant human transferrin receptor 1 (TfR1), His6-tagged, a.a. 89-760 (human, UniProt P02786 89-760).
T1 construct: range 89-760; SPR used ACRO Biosystems CD1-H5243 (His6, a.a. 89-760); also called Human TfR1; CD71; not shown: His6 tag
Nature of the assay: SPR, TfR1 on chip; Table 2, geomean of n = 5.

Assay [2] deals with T2, Recombinant cynomolgus transferrin receptor 1 (TfR1), His6-tagged, a.a. 89-760 (cynomolgus, UniProt H9EXL1 89-760 (rhesus entry)).
T2 construct: range 89-760; Bought, ACRO Biosystems TFR-C524a; also called Cyno TfR1; Cynomolgus TfR1; not shown: His6 tag
Nature of the assay: SPR, TfR1 on chip; Table 2, geomean of n = 2.

Starred links: 1 amine or outer side, 2 acyl side, 3 side chain; linkers in the order of their positions; H or OH if unused. Positions of bridges follow the written chain, without caps; N, C: chain ends. No end group written: not given here. TATB = O=C(C[*:1])N1CN(C(=O)C[*:2])CN(C(=O)C[*:3])C1

T2 sequence (chain, as listed by the source): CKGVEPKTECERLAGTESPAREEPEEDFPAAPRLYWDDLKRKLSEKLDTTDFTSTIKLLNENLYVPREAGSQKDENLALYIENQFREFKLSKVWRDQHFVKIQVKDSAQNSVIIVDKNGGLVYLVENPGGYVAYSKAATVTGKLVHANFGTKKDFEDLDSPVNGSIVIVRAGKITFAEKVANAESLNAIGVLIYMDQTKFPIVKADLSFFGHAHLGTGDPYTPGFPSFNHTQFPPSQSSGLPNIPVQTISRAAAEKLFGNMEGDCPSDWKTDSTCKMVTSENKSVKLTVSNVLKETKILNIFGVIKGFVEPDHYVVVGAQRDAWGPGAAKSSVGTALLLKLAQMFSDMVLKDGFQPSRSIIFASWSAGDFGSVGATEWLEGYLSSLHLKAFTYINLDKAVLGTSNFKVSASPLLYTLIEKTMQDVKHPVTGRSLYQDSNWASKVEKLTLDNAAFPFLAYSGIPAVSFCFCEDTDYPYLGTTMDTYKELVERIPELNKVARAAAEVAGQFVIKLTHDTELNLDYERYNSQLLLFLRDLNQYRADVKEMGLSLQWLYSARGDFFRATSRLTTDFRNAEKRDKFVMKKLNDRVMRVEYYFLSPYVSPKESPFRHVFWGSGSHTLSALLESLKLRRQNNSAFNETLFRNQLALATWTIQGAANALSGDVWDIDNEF
T1 sequence (P02786 89-760 limits assumed): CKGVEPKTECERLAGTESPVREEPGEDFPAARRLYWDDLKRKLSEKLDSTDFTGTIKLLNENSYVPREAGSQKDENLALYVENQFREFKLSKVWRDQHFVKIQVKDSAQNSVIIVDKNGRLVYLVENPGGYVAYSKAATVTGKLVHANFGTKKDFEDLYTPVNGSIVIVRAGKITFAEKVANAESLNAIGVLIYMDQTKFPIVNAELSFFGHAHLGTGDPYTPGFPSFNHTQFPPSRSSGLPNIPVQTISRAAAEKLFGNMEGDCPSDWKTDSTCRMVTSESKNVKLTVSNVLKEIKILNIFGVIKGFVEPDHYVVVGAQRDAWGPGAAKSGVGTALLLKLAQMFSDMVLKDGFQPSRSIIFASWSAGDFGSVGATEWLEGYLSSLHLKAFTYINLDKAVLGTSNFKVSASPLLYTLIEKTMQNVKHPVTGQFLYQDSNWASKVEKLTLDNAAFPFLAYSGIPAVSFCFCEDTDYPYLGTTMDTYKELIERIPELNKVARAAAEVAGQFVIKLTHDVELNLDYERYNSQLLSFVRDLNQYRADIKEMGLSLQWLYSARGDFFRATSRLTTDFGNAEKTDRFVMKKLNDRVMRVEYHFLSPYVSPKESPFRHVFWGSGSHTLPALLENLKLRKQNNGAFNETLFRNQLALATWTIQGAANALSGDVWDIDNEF

B1: BCY15468 (peptide)
peptide: ACSPDAHLGCISYCA
modifications: linker 2-10-14 via TATB
With B1, in assay [1], the Kd worked out at 37.8 nM.

B2: BCY13989 (peptide)
peptide: ACPPDSWQGCISYCA
modifications: Cys Ci, Cii, Ciii on TATB scaffold
On to B2, for which, in assay [2], the Kd was 3.44 µM.
